Source: patent US10704030B2, “P450-BM3 variants with improved activity” (Codexis, Inc., priority 2015, dated 2020)

Experiments:
Format in all cases: biochemical
[1] = Validation of generalist properties: oxidation of diclofenac by lyophilized P450-BM3 variant, UPLC-MS; conditions: [Diclofenac] = 1 mM; for TON: TON = [substrate]*% conversion/[P450]; for FIOPC (B02): fold improvement over parent MCYP-P1.2-B02
How it was run: (§1)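 Lyophilized lysate of E. coli-expressed P450-BM3 variant (stock standardized to 12 μM heme) was incubated 24 h at 30 °C with 1 or 2 mM substrate, 1.0 mM NADP+, 25 mM glucose, 0.5 mg/mL glucose dehydrogenase and 5% DMSO in 100 mM potassium phosphate. Acetonitrile-quenched samples were analyzed by UPLC-MS (positive ESI).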

[2] = Validation of generalist properties: oxidation of loratadine by lyophilized P450-BM3 variant, UPLC-MS; conditions: [Loratadine] = 1 mM; for TON: TON = [substrate]*% conversion/[P450]; for FIOPC (B02): fold improvement over parent MCYP-P1.2-B02
How it was run: as §1

[3] = Validation of generalist properties: oxidation of imatinib by lyophilized P450-BM3 variant, UPLC-MS; conditions: [Imatinib] = 1 mM; for TON: TON = [substrate]*% conversion/[P450]; for FIOPC (B02): fold improvement over parent MCYP-P1.2-B02
How it was run: as §1

[4] = Validation of generalist properties: oxidation of gefitinib by lyophilized P450-BM3 variant, UPLC-MS; conditions: [Gefitinib] = 1 mM; for TON: TON = [substrate]*% conversion/[P450]; for FIOPC (B02): fold improvement over parent MCYP-P1.2-B02
How it was run: as §1

[5] = fold improvement over parent MCYP-P1.2-B12

Molecule	% Conv. [1]	TON [1]	% Conv. [2]	TON [2]	% Conv. [3]	TON [3]	% Conv. [4]	TON [4]	FIOPC (B12) [1, 5]	FIOPC (B12) [2, 5]	FIOPC (B12) [3, 5]	FIOPC (B12) [4, 5]	FIOPC (B02) [1]	FIOPC (B02) [2]	FIOPC (B02) [3]	FIOPC (B02) [4]
SEQ ID NO: 10: P450-BM3 parental backbone from the commercially available MCYP panel (MCYP-0343; Codexis) (protein, P450_BM3) MTIKEMPQPKTFGELKNLPLLNTDKPVQALMKIADELGEIFKFEAPGCVTRYLSSQRLIKEACDESRFDKNLSQALKFARDFAGDGLATSWTHEINWKKAHNILLPSFSQQAMKGYHAMMVDIAVQLVQKWERLNADEHIEVSEDMTRLTLDTIGLCGFNYRFNSFYRDQPHPFIISMVRALDEVMNKLQRANPDDPAYDENKRQCQEDIKVMNDLVDKIIADRKARGEQSDDLLTQMLNGKDPETGEPLDDGNISYQIITFLIAGHETTSGLLSFALYFLVKNPHVLQKVAEEAARVLVDPVPSYKQVKQLKYVGMVLNEALRLWPTAPAFSLYAKEDTVLGGEYPLEKGDEVMVLIPQLHRDKTIWGDDVEEFRPERFENPSAIPQHAFKPFGNGQRACIGQQFALHEATLVLGMMLKHFDFEDHTNYELDIKETLTLKPEGFVVKAKSKKIPLGGIPSPSTEQSAKKVRKKAENAHNTPLLVLYGSNMGTAEGTARDLADIAMSKGFAPQVATLDSHAGNLPREGAVLIVTASYNGHPPDNAKQFVDWLDQASADEVKGVRYSVFGCGDKNWATTYQKVPAFIDETLAAKGAENIADRGEADASDDFEGTYEEWREHMWSDVAAYFNLDIENSEDNKSTLSLQFVDSAADMPLAKMHGAFSTNVVASKELQQPGSARSTRHLEIELPKEASYQEGDHLGVIPRNYEGIVNRVTARFGLDASQQIRLEAEEEKLAHLPLAKTVSVEELLQYVELQDPVTRTQLRAMAAKTVCPPHKVELEALLEKQAYKEQVLAKRLTMLELLEKYPACEMKFSEFIALLPSIRPRYYSISSSPRVDEKQASITVSVVSGEAWSGYGEYKGIASNYLAELQEGDTITCFISTPQSEFTLPKDPETPLIMVGPGTGVAPFRGFVQARKQLKEQGQSLGEAHLYFGCRSPHEDYLYQEELENAQSEGIITLHTAFSRMPNQPKTYVQHVMEQDGKKLIELLDQGAHFYICGDGSQMAPAVEATLMKSYADVHQVSEADARLWLQQLEEKGRYAKDVWAG	++++ (15.01-20.00)	‡‡‡‡ (10000-50000)	++++ (15.01-20.00)	‡‡‡‡ (10000-50000)	++ (5.01-10.00)	‡‡ (1001-5000)	++ (5.01-10.00)	‡‡ (1001-5000)	–	–	–	–	–	–	–	–
Variant 3: P450-BM3 variant of SEQ ID NO: 10: K32R; C48S; Y52F; I95P; L216Y; D232H; E349K; M491A; N574T; D722S (protein, P450_BM3, C48S; Y52F; I95P; L216Y; D232H; E349K; M491A; N574T; D722S) MTIKEMPQPKTFGELKNLPLLNTDKPVQALMRIADELGEIFKFEAPGSVTRFLSSQRLIKEACDESRFDKNLSQALKFARDFAGDGLATSWTHEPNWKKAHNILLPSFSQQAMKGYHAMMVDIAVQLVQKWERLNADEHIEVSEDMTRLTLDTIGLCGFNYRFNSFYRDQPHPFIISMVRALDEVMNKLQRANPDDPAYDENKRQCQEDIKVMNDYVDKIIADRKARGEQSHDLLTQMLNGKDPETGEPLDDGNISYQIITFLIAGHETTSGLLSFALYFLVKNPHVLQKVAEEAARVLVDPVPSYKQVKQLKYVGMVLNEALRLWPTAPAFSLYAKEDTVLGGEYPLKKGDEVMVLIPQLHRDKTIWGDDVEEFRPERFENPSAIPQHAFKPFGNGQRACIGQQFALHEATLVLGMMLKHFDFEDHTNYELDIKETLTLKPEGFVVKAKSKKIPLGGIPSPSTEQSAKKVRKKAENAHNTPLLVLYGSNAGTAEGTARDLADIAMSKGFAPQVATLDSHAGNLPREGAVLIVTASYNGHPPDNAKQFVDWLDQASADEVKGVRYSVFGCGDKTWATTYQKVPAFIDETLAAKGAENIADRGEADASDDFEGTYEEWREHMWSDVAAYFNLDIENSEDNKSTLSLQFVDSAADMPLAKMHGAFSTNVVASKELQQPGSARSTRHLEIELPKEASYQEGDHLGVIPRNYEGIVNRVTARFGLSASQQIRLEAEEEKLAHLPLAKTVSVEELLQYVELQDPVTRTQLRAMAAKTVCPPHKVELEALLEKQAYKEQVLAKRLTMLELLEKYPACEMKFSEFIALLPSIRPRYYSISSSPRVDEKQASITVSVVSGEAWSGYGEYKGIASNYLAELQEGDTITCFISTPQSEFTLPKDPETPLIMVGPGTGVAPFRGFVQARKQLKEQGQSLGEAHLYFGCRSPHEDYLYQEELENAQSEGIITLHTAFSRMPNQPKTYVQHVMEQDGKKLIELLDQGAHFYICGDGSQMAPAVEATLMKSYADVHQVSEADARLWLQQLEEKGRYAKDVWAG	++++ (15.01-20.00)	‡‡‡‡ (10000-50000)	++++ (15.01-20.00)	‡‡‡‡ (10000-50000)	++++ (15.01-20.00)	‡‡‡‡ (10000-50000)	++++ (15.01-20.00)	‡‡‡‡ (10000-50000)	* (0.0-3.0)	* (0.0-3.0)	*** (5.01-10.0)	*** (5.01-10.0)	–	–	–	–
Variant 10: P450-BM3 variant of SEQ ID NO: 8: K32R; Y52F; K95P; Q111R; G115R; I176V; L216Y; D232H; P347T; E349T; M491A; T577A; E619D; D722S (protein, P450_BM3, Y52F; K95P; Q111R; G115R; I176V; L216Y; D232H; P347T; E349T; M491A; T577A; E619D; D722S) MTIKEMPQPKTFGELKNLPLLNTDKPVQALMRIADELGEIFKFEAPGRVTRFLSSQRLIKEACDESRFDKNLSQALKFARDFAGDGLFTSWTHEPNWKKAHNILLPSFSQRAMKRYHAMMVDIAVQLVQKWERLNADEYIEVPEDMTRLTLDTIGLCGFNYRFNSFYRDQPHPFIVSMIRALDEVMNKLQRANPDDPAYDENKRQFQEDIKVMNDYVDKIIADRKASGEQSHDLLTQMLNGKDPETGEPLDDGNISYQIITFLIAGHETTSGLLSFALYFLVKNPHVLQKVAEEATRVLVDPVPSYKQVKQLKYVGMVLNEALRLWPTAPAFSLYAKEDTVLGGEYTLTKGDEVMVLIPQLHRDKTIWGDDVEEFRPERFENPSAIPQHAFKPFGNGQRACIGQQFALHEATLVLGMMLKHFDFEDHTNYELDIKETLTLKPEGFVVKAKSKKIPLGGIPSPSTEQSAKKVRKKAENAHNTPLLVLYGSNAGTAEGTARDLADIAMSKGFAPQVATLDSHAGNLPREGAVLIVTASYNGHPPDNAKQFVDWLDQASADEVKGVRYSVFGCGDKNWAATYQKVPAFIDETLAAKGAENIADRGEADASDDFEGTYEEWRDHMWSDVAAYFNLDIENSEDNKSTLSLQFVDSAADMPLAKMHGAFSTNVVASKELQQPGSARSTRHLEIELPKEASYQEGDHLGVIPRNYEGIVNRVTARFGLSASQQIRLEAEEEKLAHLPLAKTVSVEELLQYVELQDPVTRTQLRAMAAKTVCPPHKVELEALLEKQAYKEQVLAKRLTMLELLEKYPACEMKFSEFIALLPSIRPRYYSISSSPRVDEKQASITVSVVSGEAWSGYGEYKGIASNYLAELQEGDTITCFISTPQSEFTLPKDPETPLIMVGPGTGVAPFRGFVQARKQLKEQGQSLGEAHLYFGCRSPHEDYLYQEELENAQSEGIITLHTAFSRMPNQPKTYVQHVMEQDGKKLIELLDQGAHFYICGDGSQMAPAVEATLMKSYADVHQVSEADARLWLQQLEEKGRYAKDVWAG	+++ (10.01-15.00)	‡‡‡ (5001-10000)	++ (5.01-10.00)	‡‡ (1001-5000)	++++ (15.01-20.00)	‡‡‡‡ (10000-50000)	++ (5.01-10.00)	‡‡ (1001-5000)	–	–	–	–	* (0.0-3.0)	* (0.0-3.0)	** (3.01-5.0)	**** (10.01-15.00)
Variant 11: P450-BM3 variant of SEQ ID NO: 8: K95P; Q111R; G115R; I176V; L216Y; E349T; M491A; T577A; E619D; D722S (protein, P450_BM3, Q111R; G115R; I176V; L216Y; E349T; M491A; T577A; E619D; D722S) MTIKEMPQPKTFGELKNLPLLNTDKPVQALMKIADELGEIFKFEAPGRVTRYLSSQRLIKEACDESRFDKNLSQALKFARDFAGDGLFTSWTHEPNWKKAHNILLPSFSQRAMKRYHAMMVDIAVQLVQKWERLNADEYIEVPEDMTRLTLDTIGLCGFNYRFNSFYRDQPHPFIVSMIRALDEVMNKLQRANPDDPAYDENKRQFQEDIKVMNDYVDKIIADRKASGEQSDDLLTQMLNGKDPETGEPLDDGNISYQIITFLIAGHETTSGLLSFALYFLVKNPHVLQKVAEEATRVLVDPVPSYKQVKQLKYVGMVLNEALRLWPTAPAFSLYAKEDTVLGGEYPLTKGDEVMVLIPQLHRDKTIWGDDVEEFRPERFENPSAIPQHAFKPFGNGQRACIGQQFALHEATLVLGMMLKHFDFEDHTNYELDIKETLTLKPEGFVVKAKSKKIPLGGIPSPSTEQSAKKVRKKAENAHNTPLLVLYGSNAGTAEGTARDLADIAMSKGFAPQVATLDSHAGNLPREGAVLIVTASYNGHPPDNAKQFVDWLDQASADEVKGVRYSVFGCGDKNWAATYQKVPAFIDETLAAKGAENIADRGEADASDDFEGTYEEWRDHMWSDVAAYFNLDIENSEDNKSTLSLQFVDSAADMPLAKMHGAFSTNVVASKELQQPGSARSTRHLEIELPKEASYQEGDHLGVIPRNYEGIVNRVTARFGLSASQQIRLEAEEEKLAHLPLAKTVSVEELLQYVELQDPVTRTQLRAMAAKTVCPPHKVELEALLEKQAYKEQVLAKRLTMLELLEKYPACEMKFSEFIALLPSIRPRYYSISSSPRVDEKQASITVSVVSGEAWSGYGEYKGIASNYLAELQEGDTITCFISTPQSEFTLPKDPETPLIMVGPGTGVAPFRGFVQARKQLKEQGQSLGEAHLYFGCRSPHEDYLYQEELENAQSEGIITLHTAFSRMPNQPKTYVQHVMEQDGKKLIELLDQGAHFYICGDGSQMAPAVEATLMKSYADVHQVSEADARLWLQQLEEKGRYAKDVWAG	++++ (15.01-20.00)	‡‡‡ (5001-10000)	+++ (10.01-15.00)	‡‡‡ (5001-10000)	++++ (15.01-20.00)	‡‡‡‡ (10000-50000)	+ (0-5.00)	‡ (0-1000)	–	–	–	–	* (0.0-3.0)	* (0.0-3.0)	* (0.0-3.0)	* (0.0-3.0)
